Results on six molecules are retold here after patent US20220204580A1 (AstraZeneca / MedImmune, published 2022).

Test [1] has as its target T1, human calcitonin receptor (human, UniProt P30988 25-474).
T1 sequence (looked up): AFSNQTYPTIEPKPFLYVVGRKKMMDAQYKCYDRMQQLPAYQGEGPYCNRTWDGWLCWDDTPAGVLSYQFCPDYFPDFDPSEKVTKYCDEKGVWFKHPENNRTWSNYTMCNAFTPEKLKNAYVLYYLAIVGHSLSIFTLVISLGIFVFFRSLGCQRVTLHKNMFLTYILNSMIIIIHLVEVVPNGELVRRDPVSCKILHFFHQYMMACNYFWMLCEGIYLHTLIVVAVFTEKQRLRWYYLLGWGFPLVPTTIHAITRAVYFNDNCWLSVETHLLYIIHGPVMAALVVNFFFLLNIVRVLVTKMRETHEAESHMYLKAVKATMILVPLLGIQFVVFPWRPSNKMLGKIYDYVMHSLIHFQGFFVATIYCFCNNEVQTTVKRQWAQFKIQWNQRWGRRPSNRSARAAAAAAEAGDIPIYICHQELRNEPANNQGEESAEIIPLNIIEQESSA
Description: cell-based or functional assay.

Test [2] deals with T2, human amylin receptor (calcitonin receptor co-expressed with receptor activity modifying protein, RAMP3) (human, UniProt P30988 25-474; O60896 24-148).
T2 sequence (looked up) 1: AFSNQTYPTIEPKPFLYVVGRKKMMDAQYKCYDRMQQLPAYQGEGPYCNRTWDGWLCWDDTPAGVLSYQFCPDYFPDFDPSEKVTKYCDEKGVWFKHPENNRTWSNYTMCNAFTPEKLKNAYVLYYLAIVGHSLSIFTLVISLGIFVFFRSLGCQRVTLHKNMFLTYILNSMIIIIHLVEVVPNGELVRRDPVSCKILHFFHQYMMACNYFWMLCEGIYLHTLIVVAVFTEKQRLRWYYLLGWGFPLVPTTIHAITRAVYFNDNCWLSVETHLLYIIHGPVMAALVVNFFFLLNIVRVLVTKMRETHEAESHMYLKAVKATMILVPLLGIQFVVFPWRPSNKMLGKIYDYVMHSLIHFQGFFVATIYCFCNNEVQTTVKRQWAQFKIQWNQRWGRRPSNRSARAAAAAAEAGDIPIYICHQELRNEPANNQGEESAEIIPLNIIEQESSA
T2 sequence (looked up) 2: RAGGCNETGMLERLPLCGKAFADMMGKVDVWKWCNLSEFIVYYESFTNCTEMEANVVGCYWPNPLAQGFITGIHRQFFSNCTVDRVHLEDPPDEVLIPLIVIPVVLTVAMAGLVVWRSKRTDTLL
The experiment in a line: cell-based or functional assay.

Numbered stars: 1 amine (or outer) side, 2 acyl side, 3 side chain; on linkers, the order of the positions; unused ones are H or OH. Bridge positions count the residues as written; N and C are the ends. Square brackets hold non-standard residues; d marks the D form. Side chains are listed from the residue outwards. Ends that are not written are not given here. * marks the point of attachment. C18 diacid = O=C(O)CCCCCCCCCCCCCCCCC(=O)*; γGlu = O=C(O)[C@H](CCC(=O)[*:2])N[*:1]; Aib = CC(C)(N)C(=O)O

B1: Peptide 94 (SEQ ID NO: 94) (peptide)
peptide: K([γGlu-C18 diacid])KCNTATCATQRLANFL[Aib]HSSNNFGP[Aib]LPPTNVGSNTY-NH2
modifications: disulfide 3-8; N-terminus assumed
SMILES: CC(C)C[C@H](NC(=O)[C@H](CCCNC(=N)N)NC(=O)[C@H](CCC(N)=O)NC(=O)[C@@H](NC(=O)[C@H](C)NC(=O)[C@@H]1CSSC[C@H](NC(=O)[C@H](CCCCN)NC(=O)[C@@H](N)CCCCNC(=O)CC[C@H](NC(=O)CCCCCCCCCCCCCCCCC(=O)O)C(=O)O)C(=O)N[C@@H](CC(N)=O)C(=O)N[C@@H]([C@@H](C)O)C(=O)N[C@@H](C)C(=O)N[C@@H]([C@@H](C)O)C(=O)N1)[C@@H](C)O)C(=O)N[C@@H](C)C(=O)N[C@@H](CC(N)=O)C(=O)N[C@@H](Cc1ccccc1)C(=O)N[C@@H](CC(C)C)C(=O)NC(C)(C)C(=O)N[C@@H](Cc1c[nH]cn1)C(=O)N[C@@H](CO)C(=O)N[C@@H](CO)C(=O)N[C@@H](CC(N)=O)C(=O)N[C@@H](CC(N)=O)C(=O)N[C@@H](Cc1ccccc1)C(=O)NCC(=O)N1CCC[C@H]1C(=O)NC(C)(C)C(=O)N[C@@H](CC(C)C)C(=O)N1CCC[C@H]1C(=O)N1CCC[C@H]1C(=O)N[C@H](C(=O)N[C@@H](CC(N)=O)C(=O)N[C@H](C(=O)NCC(=O)N[C@@H](CO)C(=O)N[C@@H](CC(N)=O)C(=O)N[C@H](C(=O)N[C@@H](Cc1ccc(O)cc1)C(N)=O)[C@@H](C)O)C(C)C)[C@@H](C)O
As to B1, the “EC50 (cAMP production)” value in test [1] came to 1.9 nM. In test [2], the “EC50 (cAMP production)” value stood at 0.322 nM and the “Ratio (EC50 hCTR / EC50 hAMYR3)” value turned out to be 6.

B2: Peptide 88 (SEQ ID NO: 88) (peptide)
peptide: K([γGlu-C18 diacid])KCNTATCATQRLANFLVHSS[Aib]NFGPIL[Aib]PTNVGSNTY-NH2
modifications: disulfide 3-8; N-terminus assumed
SMILES: CC[C@H](C)[C@H](NC(=O)[C@@H]1CCCN1C(=O)CNC(=O)[C@H](Cc1ccccc1)NC(=O)[C@H](CC(N)=O)NC(=O)C(C)(C)NC(=O)[C@H](CO)NC(=O)[C@H](CO)NC(=O)[C@H](Cc1c[nH]cn1)NC(=O)[C@@H](NC(=O)[C@H](CC(C)C)NC(=O)[C@H](Cc1ccccc1)NC(=O)[C@H](CC(N)=O)NC(=O)[C@H](C)NC(=O)[C@H](CC(C)C)NC(=O)[C@H](CCCNC(=N)N)NC(=O)[C@H](CCC(N)=O)NC(=O)[C@@H](NC(=O)[C@H](C)NC(=O)[C@@H]1CSSC[C@H](NC(=O)[C@H](CCCCN)NC(=O)[C@@H](N)CCCCNC(=O)CC[C@H](NC(=O)CCCCCCCCCCCCCCCCC(=O)O)C(=O)O)C(=O)N[C@@H](CC(N)=O)C(=O)N[C@@H]([C@@H](C)O)C(=O)N[C@@H](C)C(=O)N[C@@H]([C@@H](C)O)C(=O)N1)[C@@H](C)O)C(C)C)C(=O)N[C@@H](CC(C)C)C(=O)NC(C)(C)C(=O)N1CCC[C@H]1C(=O)N[C@H](C(=O)N[C@@H](CC(N)=O)C(=O)N[C@H](C(=O)NCC(=O)N[C@@H](CO)C(=O)N[C@@H](CC(N)=O)C(=O)N[C@H](C(=O)N[C@@H](Cc1ccc(O)cc1)C(N)=O)[C@@H](C)O)C(C)C)[C@@H](C)O
On to B2, for which the “EC50 (cAMP production)” value in test [1] was 1.17 nM; in test [2], 0.281 nM. In addition, in test [2], the “Ratio (EC50 hCTR / EC50 hAMYR3)” value is 4.

B3: Peptide 89 (SEQ ID NO: 89) (peptide)
peptide: K([γGlu-γGlu-C18 diacid])CNTATCATQRLANFLVHSS[Aib]NFGPILPPT[Aib]VGSNTY-NH2
modifications: disulfide 2-7
B3: in test [1], the “EC50 (cAMP production)” value amounted to 8.24 nM. For the same molecule, in test [2], the “EC50 (cAMP production)” value came to 0.447 nM and the “Ratio (EC50 hCTR / EC50 hAMYR3)” value was found to be 18.

B4: Peptide 92 (SEQ ID NO: 92) (peptide)
peptide: K([γGlu-γGlu-C18 diacid])CNTATCATQRLANFLRHSS[Aib]NFGPILPPTNVGS[Aib]TY-NH2
modifications: disulfide 2-7; N-terminus assumed
SMILES: CC[C@H](C)[C@H](NC(=O)[C@@H]1CCCN1C(=O)CNC(=O)[C@H](Cc1ccccc1)NC(=O)[C@H](CC(N)=O)NC(=O)C(C)(C)NC(=O)[C@H](CO)NC(=O)[C@H](CO)NC(=O)[C@H](Cc1c[nH]cn1)NC(=O)[C@H](CCCNC(=N)N)NC(=O)[C@H](CC(C)C)NC(=O)[C@H](Cc1ccccc1)NC(=O)[C@H](CC(N)=O)NC(=O)[C@H](C)NC(=O)[C@H](CC(C)C)NC(=O)[C@H](CCCNC(=N)N)NC(=O)[C@H](CCC(N)=O)NC(=O)[C@@H](NC(=O)[C@H](C)NC(=O)[C@@H]1CSSC[C@H](NC(=O)[C@@H](N)CCCCNC(=O)CC[C@H](NC(=O)CC[C@H](NC(=O)CCCCCCCCCCCCCCCCC(=O)O)C(=O)O)C(=O)O)C(=O)N[C@@H](CC(N)=O)C(=O)N[C@@H]([C@@H](C)O)C(=O)N[C@@H](C)C(=O)N[C@@H]([C@@H](C)O)C(=O)N1)[C@@H](C)O)C(=O)N[C@@H](CC(C)C)C(=O)N1CCC[C@H]1C(=O)N1CCC[C@H]1C(=O)N[C@H](C(=O)N[C@@H](CC(N)=O)C(=O)N[C@H](C(=O)NCC(=O)N[C@@H](CO)C(=O)NC(C)(C)C(=O)N[C@H](C(=O)N[C@@H](Cc1ccc(O)cc1)C(N)=O)[C@@H](C)O)C(C)C)[C@@H](C)O
Regarding B4, the “EC50 (cAMP production)” value in test [1] came to 44.4 nM; in test [2] it was 0.341 nM. The “Ratio (EC50 hCTR / EC50 hAMYR3)” value in test [2] came to 130.

B5: Peptide 91 (SEQ ID NO: 91) (peptide)
peptide: K([γGlu-γGlu-C18 diacid])CNTATCATQRLANFLVHSS[Aib]NFGPILPPTNVGS[Aib]TY-NH2
modifications: disulfide 2-7; N-terminus assumed
SMILES: CC[C@H](C)[C@H](NC(=O)[C@@H]1CCCN1C(=O)CNC(=O)[C@H](Cc1ccccc1)NC(=O)[C@H](CC(N)=O)NC(=O)C(C)(C)NC(=O)[C@H](CO)NC(=O)[C@H](CO)NC(=O)[C@H](Cc1c[nH]cn1)NC(=O)[C@@H](NC(=O)[C@H](CC(C)C)NC(=O)[C@H](Cc1ccccc1)NC(=O)[C@H](CC(N)=O)NC(=O)[C@H](C)NC(=O)[C@H](CC(C)C)NC(=O)[C@H](CCCNC(=N)N)NC(=O)[C@H](CCC(N)=O)NC(=O)[C@@H](NC(=O)[C@H](C)NC(=O)[C@@H]1CSSC[C@H](NC(=O)[C@@H](N)CCCCNC(=O)CC[C@H](NC(=O)CC[C@H](NC(=O)CCCCCCCCCCCCCCCCC(=O)O)C(=O)O)C(=O)O)C(=O)N[C@@H](CC(N)=O)C(=O)N[C@@H]([C@@H](C)O)C(=O)N[C@@H](C)C(=O)N[C@@H]([C@@H](C)O)C(=O)N1)[C@@H](C)O)C(C)C)C(=O)N[C@@H](CC(C)C)C(=O)N1CCC[C@H]1C(=O)N1CCC[C@H]1C(=O)N[C@H](C(=O)N[C@@H](CC(N)=O)C(=O)N[C@H](C(=O)NCC(=O)N[C@@H](CO)C(=O)NC(C)(C)C(=O)N[C@H](C(=O)N[C@@H](Cc1ccc(O)cc1)C(N)=O)[C@@H](C)O)C(C)C)[C@@H](C)O
B5: the “EC50 (cAMP production)” value in test [1] was determined as 2.36 nM. In test [2], the “EC50 (cAMP production)” value was determined as 0.2 nM and the “Ratio (EC50 hCTR / EC50 hAMYR3)” value is 12.

B6: Peptide 90 (SEQ ID NO: 90) (peptide)
peptide: K([γGlu-γGlu-C18 diacid])CNTATCATQRLANFLRHSS[Aib]NFGPILPPT[Aib]VGSNTY-NH2
modifications: disulfide 2-7; N-terminus assumed
SMILES: CC[C@H](C)[C@H](NC(=O)[C@@H]1CCCN1C(=O)CNC(=O)[C@H](Cc1ccccc1)NC(=O)[C@H](CC(N)=O)NC(=O)C(C)(C)NC(=O)[C@H](CO)NC(=O)[C@H](CO)NC(=O)[C@H](Cc1c[nH]cn1)NC(=O)[C@H](CCCNC(=N)N)NC(=O)[C@H](CC(C)C)NC(=O)[C@H](Cc1ccccc1)NC(=O)[C@H](CC(N)=O)NC(=O)[C@H](C)NC(=O)[C@H](CC(C)C)NC(=O)[C@H](CCCNC(=N)N)NC(=O)[C@H](CCC(N)=O)NC(=O)[C@@H](NC(=O)[C@H](C)NC(=O)[C@@H]1CSSC[C@H](NC(=O)[C@@H](N)CCCCNC(=O)CC[C@H](NC(=O)CC[C@H](NC(=O)CCCCCCCCCCCCCCCCC(=O)O)C(=O)O)C(=O)O)C(=O)N[C@@H](CC(N)=O)C(=O)N[C@@H]([C@@H](C)O)C(=O)N[C@@H](C)C(=O)N[C@@H]([C@@H](C)O)C(=O)N1)[C@@H](C)O)C(=O)N[C@@H](CC(C)C)C(=O)N1CCC[C@H]1C(=O)N1CCC[C@H]1C(=O)N[C@H](C(=O)NC(C)(C)C(=O)N[C@H](C(=O)NCC(=O)N[C@@H](CO)C(=O)N[C@@H](CC(N)=O)C(=O)N[C@H](C(=O)N[C@@H](Cc1ccc(O)cc1)C(N)=O)[C@@H](C)O)C(C)C)[C@@H](C)O
Take B6: the “EC50 (cAMP production)” value in test [1] worked out at 15.6 nM; in test [2], 1.06 nM. For the same molecule, the “Ratio (EC50 hCTR / EC50 hAMYR3)” value in test [2] is 15.
